Literature values as cited in article PMC13428679.
pKd: −log10 of the molar value.

Tests used:
[1] = molecular target: Fbs1 (Cavia porcellus)
[2] = molecular target: Skp1 (Dictyostelium discoideum) (UniProt P52285)

Fbs1 (Cavia porcellus), sequence (Q80UW2 whole entry): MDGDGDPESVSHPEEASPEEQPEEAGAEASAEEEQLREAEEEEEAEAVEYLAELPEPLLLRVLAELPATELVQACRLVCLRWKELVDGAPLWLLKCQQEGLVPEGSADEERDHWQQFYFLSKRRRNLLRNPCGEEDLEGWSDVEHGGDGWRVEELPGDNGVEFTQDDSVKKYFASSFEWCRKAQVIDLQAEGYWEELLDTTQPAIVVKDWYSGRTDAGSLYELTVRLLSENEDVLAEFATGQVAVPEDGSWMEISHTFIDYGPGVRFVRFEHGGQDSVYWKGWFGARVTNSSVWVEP

pKd [1] | pKd [2] | Substance
4.60 | – | Skp1 (from UniProt P63208)
– | 5.60 | Skp1 (from UniProt P52285)
